Measurements from publication PMC11804793, “Characterization of a C-methyltransferase from Streptomyces griseoviridis – crystal structure, mechanism, and substrate scope” (Chemical Science, 2025).

Legend:
SgMT = molecular target: T1, SgMT (Streptomyces griseoviridis, UniProt A0A918GRY4); assay: X-ray crystallography, […] Å; assay type: binding; settings: non-methylated form of the cofactor, co-crystallised; cWW in the sample but not seen in density
T1 construct: gene GCM10010238_52040; C-terminally His-tagged for kinetics, produced in E. coli BL21 (DE3), Ni-NTA purified; dimer; residues before T7 disordered in crystal
T1 sequence (A0A918GRY4 1-269): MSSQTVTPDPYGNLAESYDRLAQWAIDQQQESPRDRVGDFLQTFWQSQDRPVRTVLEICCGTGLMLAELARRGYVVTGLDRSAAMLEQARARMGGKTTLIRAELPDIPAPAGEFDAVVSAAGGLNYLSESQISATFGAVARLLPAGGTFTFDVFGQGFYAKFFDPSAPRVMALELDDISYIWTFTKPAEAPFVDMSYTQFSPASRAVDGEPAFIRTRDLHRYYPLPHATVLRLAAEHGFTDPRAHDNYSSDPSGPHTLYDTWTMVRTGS

[1] = molecular target: SAM-dependent indole C3-methyltransferase SgMT from Streptomyces griseoviridis (Streptomyces griseoviridis); assay: crystal structure; SgMT crystallised in the presence of SAH (cWW included in the sample but not seen); space group P4(1)2(1)2, three protein chains per asymmetric unit; dmin 1.47 Å
[2] = substrate: O=C1N[C@@H](Cc2c[nH]c3ccccc23)C(=O)N[C@H]1Cc1c[nH]c2ccccc12; assay: MTase Glo luminescence assay (SAH formation), Michaelis-Menten; assay type: biochemical, Streptomyces griseoviridis; settings: co-substrate SAM; C-terminally His-tagged enzyme

Which “X-ray crystallography, 1.47 Å” value (SgMT) does the source give for Nc1ncnc2c1ncn2[C@@H]1O[C@H](CSCC[C@H](N)C(=O)O)[C@@H](O)[C@H]1O [SAH] here?
The value was “we crystallised the protein in the presence of the cofactor (using the non-methylated form, SAH)”.

For “SAM-dependent indole C3-methyltransferase SgMT from Streptomyces griseoviridis (enzyme)”, which stoichiometry N [1] is on record?
The stoichiometry N was 2.

B1: SgMT (Streptomyces griseoviridis) (protein)
chain: MSSQTVTPDPYGNLAESYDRLAQWAIDQQQESPRDRVGDFLQTFWQSQDRPVRTVLEICCGTGLMLAELARRGYVVTGLDRSAAMLEQARARMGGKTTLIRAELPDIPAPAGEFDAVVSAAGGLNYLSESQISATFGAVARLLPAGGTFTFDVFGQGFYAKFFDPSAPRVMALELDDISYIWTFTKPAEAPFVDMSYTQFSPASRAVDGEPAFIRTRDLHRYYPLPHATVLRLAAEHGFTDPRAHDNYSSDPSGPHTLYDTWTMVRTGS
notes: C-terminally His-tagged for kinetics, produced in E. coli BL21 (DE3), Ni-NTA purified; dimer; residues before T7 disordered in crystal
How did the Km [2] turn out when B1 was run?
Its Km is 10.53 ± 2.01 µM.

And the kcat [2]?
The kcat was 0.0025 s⁻¹.
